Measurements taken from PMC5814841.
Residue numbers refer to the chain shown, from its start.

T1: hpTEN (Hansenula polymorpha (Ogataea …, UniProt R4IT35 1-159))
T1 sequence: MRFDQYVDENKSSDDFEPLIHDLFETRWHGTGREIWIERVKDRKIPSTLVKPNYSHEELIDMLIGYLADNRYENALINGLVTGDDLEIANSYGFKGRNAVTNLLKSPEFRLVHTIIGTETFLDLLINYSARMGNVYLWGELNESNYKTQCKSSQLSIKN

T2: hpTEN N53A/S55A/R110A (Hansenula polymorpha (Ogataea …, UniProt R4IT35 1-159, N53A;S55A;R110A))
T2 sequence: T1 sequence with N53A, S55A, R110A

T3: hpTEN N53A/S55A/R110A/E119A (Hansenula polymorpha (Ogataea …, UniProt R4IT35 1-159, N53A;S55A;R110A;E119A))
T3 sequence: T1 sequence with N53A, S55A, R110A, E119A

B1: E9 RNA-DNA half-fork (DNA:RNA)
DNA: GGGTGGC
RNA: GCCACCCUUCGUCA
B2: E4 RNA-DNA heteroduplex 2 (DNA:RNA)
DNA: GTGGCGGGGTGGCG
?: CGCCACCCCGCCAC
B3: FAM-E4 heteroduplex (DNA:RNA)
DNA: GTGGCGGGGTGGCG
?: CGCCACCCCGCCAC
B4: E3 RNA-DNA heteroduplex 1 (DNA:RNA)
DNA: GGGTGGCG
?: CGCCACCC
B5: FAM-E8 fork (DNA:RNA)
DNA: CTGTTTCGGGTGGC
RNA: GCCACCCUUCGUCA

How the values were obtained:
hpTEN [1] = biological target: T1, hpTEN; test: NMR titration
hpTEN [2] = biological target: T1, hpTEN; test: MST
hpTEN N53A/S55A/R110A = biological target: T2, hpTEN N53A/S55A/R110A; test: MST
[3] = biological target: T3, hpTEN N53A/S55A/R110A/E119A; test: MST

Binder | Kd (hpTEN [1]) [µM] | Kd (hpTEN [2]) [µM] | further results
CGCCACCCCGCCAC (ssRNA) [E5 ssRNA 2] | 5000 ± 3000 |  | 
B1 | 4000 ± 2000 |  | 
B2 | 900 ± 200 |  | 
GTGGCGGGGTGGCG (ssDNA) [FAM-ssDNA E2] |  | 1000 ± 200 | 
B3 |  | 900 ± 200 | 
B4 | 1400 ± 300 |  | 
CGCCACCC (ssRNA) [E1 ssRNA 1] | 5000 ± 2500 |  | 
B5 |  | 400 ± 200 | Kd (hpTEN N53A/S55A/R110A): ~300 µM; Kd [3]: ~300 µM
